Experimental data reported in patent US20230303698A1 (published 2023).

B1: PR007164 (bispecific antibody)
chain 1: EVQLVESGGGLVQPGGSLRLSCAASGFTFSSYWMSWVRQAPGKGLEWVANIKQEGSEKYYVDSVKGRFTISRDNAKNSLYLQMNSLRAEDTAVYYCARDRAVAGAFDIWGQGTMVTVSSASTKGPSVFPLAPSSKSTSGGTAALGCLVKDYFPEPVTVSWNSGALTSGVHTFPAVLQSSGLYSLSSVVTVPSSSLGTQTYICNVNHKPSNTKVDKKVEPKSC
chain 2: not shown
B2: PR004270 (bispecific antibody)
chain 1: B1 chain 1
chain 2: not shown
B3: PR003551 (bispecific antibody)
light: DIQMTQSPSTLSASVGDRVTVTCRASQSIYIWLAWYQQKPGKAPNLLIYKASSLETGVPSRFSGSGSGTEFTLTISSLQPDDFATYYCQQYYGSSRTFGQGTKVEIKRTVAAPSVFIFPPSDEQLKSGTASVVCLLNNFYPREAKVQWKVDNALQSGNSQESVTEQDSKDSTYSLSSTLTLSKADYEKHKVYACEVTHQGLSSPVTKSFNRGEC
heavy: EVQLVESGGGLVQPGGSLRLSCAASGFTFSSYWMSWVRQAPGKGLEWVANIKQEGSEKYYVDSVKGRFTISRDNAKNSLYLQMNSLRAEDTAVYYCARDRAVAGAFDIWGQGTMVTVSSASTKGPSVFPLAPSSKSTSGGTAALGCLVKDYFPEPVTVSWNSGALTSGVHTFPAVLQSSGLYSLSSVVTVPSSSLGTQTYICNVNHKPSNTKVDKKVEPKSCDKTHTCPPCPAPEAAGGPSVFLFPPKPKDTLMISRTPEVTCVVVDVSHEDPEVKFNWYVDGVEVHNAKTKPREEQYNSTYRVVSVLTVLHQDWLNGKEYKCKVSNKALGAPIEKTISKAKGQPREPQVYTLPPSREEMTKNQVSLTCLVKGFYPSDIAVEWESNGQPENNYKTTPPVLDSDGSFFLYSKLTVDKSRWQQGNVFSCSVMHEALHNHYTQKSLSLSPGEPKSSDKTHTPPPPPRTEVQLLESGGGLVQPGGSLRLSCAASGFIFSNFAMTWVRQPPEKGLKWVSSINGSGFNTYYTDSVKGRFTISRDNSRNTLYLQMNRLTAEDTAVYFCAKEGSSETDDHYYNVDVWGQGTTVTVSS
B4: PR007163 (bispecific antibody)
light: B3 light
heavy: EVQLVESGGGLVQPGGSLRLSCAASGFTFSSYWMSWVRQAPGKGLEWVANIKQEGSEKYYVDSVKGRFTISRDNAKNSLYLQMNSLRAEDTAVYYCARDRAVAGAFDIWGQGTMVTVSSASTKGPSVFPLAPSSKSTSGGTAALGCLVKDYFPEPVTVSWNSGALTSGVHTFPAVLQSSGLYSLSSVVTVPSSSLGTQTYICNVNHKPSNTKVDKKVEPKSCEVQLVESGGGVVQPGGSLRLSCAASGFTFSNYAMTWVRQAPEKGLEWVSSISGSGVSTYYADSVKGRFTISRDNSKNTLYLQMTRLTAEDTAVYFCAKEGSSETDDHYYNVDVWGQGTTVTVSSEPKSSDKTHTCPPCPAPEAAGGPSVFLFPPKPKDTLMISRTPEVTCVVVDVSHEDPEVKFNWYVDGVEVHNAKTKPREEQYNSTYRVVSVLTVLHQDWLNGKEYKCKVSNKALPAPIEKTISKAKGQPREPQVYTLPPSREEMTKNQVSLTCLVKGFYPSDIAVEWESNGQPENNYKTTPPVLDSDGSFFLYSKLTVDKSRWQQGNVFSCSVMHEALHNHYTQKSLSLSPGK
B5: PR003550 (bispecific antibody)
light: B3 light
heavy: EVQLVESGGGLVQPGGSLRLSCAASGFTFSSYWMSWVRQAPGKGLEWVANIKQEGSEKYYVDSVKGRFTISRDNAKNSLYLQMNSLRAEDTAVYYCARDRAVAGAFDIWGQGTMVTVSSASTKGPSVFPLAPSSKSTSGGTAALGCLVKDYFPEPVTVSWNSGALTSGVHTFPAVLQSSGLYSLSSVVTVPSSSLGTQTYICNVNHKPSNTKVDKKVEPKSCDKTHTCPPCPAPEAAGGPSVFLFPPKPKDTLMISRTPEVTCVVVDVSHEDPEVKFNWYVDGVEVHNAKTKPREEQYNSTYRVVSVLTVLHQDWLNGKEYKCKVSNKALGAPIEKTISKAKGQPREPQVYTLPPSREEMTKNQVSLTCLVKGFYPSDIAVEWESNGQPENNYKTTPPVLDSDGSFFLYSKLTVDKSRWQQGNVFSCSVMHEALHNHYTQKSLSLSPGEPKSSDKTHTPPPPPRTEVQLVESGGGVVQPGGSLRLSCAASGFTFSNYAMTWVRQAPEKGLEWVSSISGSGVSTYYADSVKGRFTISRDNSKNTLYLQMTRLTAEDTAVYFCAKEGSSETDDHYYNVDVWGQGTTVTVSS
B6: PR003562 (bispecific antibody)
light: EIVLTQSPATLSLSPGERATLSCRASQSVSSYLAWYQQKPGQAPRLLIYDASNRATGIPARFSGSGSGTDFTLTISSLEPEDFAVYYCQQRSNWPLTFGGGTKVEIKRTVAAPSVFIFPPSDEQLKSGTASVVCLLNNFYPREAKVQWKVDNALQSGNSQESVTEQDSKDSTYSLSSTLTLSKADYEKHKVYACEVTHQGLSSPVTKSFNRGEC
heavy: EVQLLESGGGLVQPGGSLRLSCAASGFTFSSFVMSWVRQAPGKGLEWVSTISGSGRSTYYADSVKGRFTISRDNSKNTLHLQMNSLRAEDTAVYYCAKDAAAAGTKFDYWGQGTLVTVSSASTKGPSVFPLAPSSKSTSGGTAALGCLVKDYFPEPVTVSWNSGALTSGVHTFPAVLQSSGLYSLSSVVTVPSSSLGTQTYICNVNHKPSNTKVDKKVEPKSCDKTHTCPPCPAPEAAGGPSVFLFPPKPKDTLMISRTPEVTCVVVDVSHEDPEVKFNWYVDGVEVHNAKTKPREEQYNSTYRVVSVLTVLHQDWLNGKEYKCKVSNKALGAPIEKTISKAKGQPREPQVYTLPPSREEMTKNQVSLTCLVKGFYPSDIAVEWESNGQPENNYKTTPPVLDSDGSFFLYSKLTVDKSRWQQGNVFSCSVMHEALHNHYTQKSLSLSPGEPKSSDKTHTPPPPPRTEVQLLESGGGLVQLGGSLRLSCAASGFTFSRYAMTWVRQAPEKGLEWVSSISGSGDDTYYGDSVKGRFTISRDNSQNTVYLQMNSLRAEDTAVYFCAKEKAGTTGDYYYNVDVWGQGTTVTVSS
B7: PR003564 (bispecific antibody)
light: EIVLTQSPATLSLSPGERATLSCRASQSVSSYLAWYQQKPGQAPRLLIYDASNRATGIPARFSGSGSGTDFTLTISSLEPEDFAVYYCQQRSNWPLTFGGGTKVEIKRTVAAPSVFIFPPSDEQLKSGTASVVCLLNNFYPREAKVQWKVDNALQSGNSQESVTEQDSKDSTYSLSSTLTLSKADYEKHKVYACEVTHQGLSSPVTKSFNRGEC
heavy: EVQLLESGGGLVQPGGSLRLSCAASGFTFSSFVMSWVRQAPGKGLEWVSTISGSGRSTYYADSVKGRFTISRDNSKNTLHLQMNSLRAEDTAVYYCAKDAAAAGTKFDYWGQGTLVTVSSASTKGPSVFPLAPSSKSTSGGTAALGCLVKDYFPEPVTVSWNSGALTSGVHTFPAVLQSSGLYSLSSVVTVPSSSLGTQTYICNVNHKPSNTKVDKKVEPKSCDKTHTCPPCPAPEAAGGPSVFLFPPKPKDTLMISRTPEVTCVVVDVSHEDPEVKFNWYVDGVEVHNAKTKPREEQYNSTYRVVSVLTVLHQDWLNGKEYKCKVSNKALGAPIEKTISKAKGQPREPQVYTLPPSREEMTKNQVSLTCLVKGFYPSDIAVEWESNGQPENNYKTTPPVLDSDGSFFLYSKLTVDKSRWQQGNVFSCSVMHEALHNHYTQKSLSLSPGEPKSSDKTHTPPPPPRTEVQLLESGGGLVQPGGSLRLSCAASGFIFSNFAMTWVRQPPEKGLKWVSSINGSGFNTYYTDSVKGRFTISRDNSRNTLYLQMNRLTAEDTAVYFCAKEGSSETDDHYYNVDVWGQGTTVTVSS
B8: PR003563 (bispecific antibody)
light: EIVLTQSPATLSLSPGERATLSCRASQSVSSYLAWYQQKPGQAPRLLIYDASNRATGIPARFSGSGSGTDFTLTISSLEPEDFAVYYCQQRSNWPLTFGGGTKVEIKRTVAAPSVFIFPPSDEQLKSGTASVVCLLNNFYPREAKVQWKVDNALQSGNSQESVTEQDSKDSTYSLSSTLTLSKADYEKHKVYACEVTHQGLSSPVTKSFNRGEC
heavy: EVQLLESGGGLVQPGGSLRLSCAASGFTFSSFVMSWVRQAPGKGLEWVSTISGSGRSTYYADSVKGRFTISRDNSKNTLHLQMNSLRAEDTAVYYCAKDAAAAGTKFDYWGQGTLVTVSSASTKGPSVFPLAPSSKSTSGGTAALGCLVKDYFPEPVTVSWNSGALTSGVHTFPAVLQSSGLYSLSSVVTVPSSSLGTQTYICNVNHKPSNTKVDKKVEPKSCDKTHTCPPCPAPEAAGGPSVFLFPPKPKDTLMISRTPEVTCVVVDVSHEDPEVKFNWYVDGVEVHNAKTKPREEQYNSTYRVVSVLTVLHQDWLNGKEYKCKVSNKALGAPIEKTISKAKGQPREPQVYTLPPSREEMTKNQVSLTCLVKGFYPSDIAVEWESNGQPENNYKTTPPVLDSDGSFFLYSKLTVDKSRWQQGNVFSCSVMHEALHNHYTQKSLSLSPGEPKSSDKTHTPPPPPRTEVQLVESGGGVVQPGGSLRLSCAASGFTFSNYAMTWVRQAPEKGLEWVSSISGSGVSTYYADSVKGRFTISRDNSKNTLYLQMTRLTAEDTAVYFCAKEGSSETDDHYYNVDVWGQGTTVTVSS

molecular target: human PD-L1 (human, UniProt Q9NZQ7 19-290); assay: FACS
Sequence (Q9NZQ7 19-290): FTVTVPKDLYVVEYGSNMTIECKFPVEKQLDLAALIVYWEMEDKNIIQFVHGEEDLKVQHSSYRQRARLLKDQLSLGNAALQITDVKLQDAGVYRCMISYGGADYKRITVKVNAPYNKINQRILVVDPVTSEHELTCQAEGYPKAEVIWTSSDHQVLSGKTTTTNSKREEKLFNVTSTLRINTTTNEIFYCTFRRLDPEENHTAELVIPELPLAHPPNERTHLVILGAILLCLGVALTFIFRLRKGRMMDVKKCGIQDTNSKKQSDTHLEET

EC50	Binder
1.93 nM	B1
0.963 nM	B2
1.29 nM	B3
2.26 nM	B4
1.11 nM	B5

molecular target: T1, human 4-1BB (human, UniProt Q07011 24-255); assay: FACS

EC50	Binder
3.15 nM	B3

molecular target: T1, human 4-1BB; assay: FACS; remark: another data set of the same source

EC50	Binder
1.87 nM	B6
2.78 nM	B7
1.65 nM	B8
